Measured values published in paper doi:10.1101/569459 (bioRxiv, 2019).

Biological target: MBP::PP1β (UniProt P62140 1-327)
Experiment: pull-down

Sequence of MBP::PP1β (P62140 whole entry): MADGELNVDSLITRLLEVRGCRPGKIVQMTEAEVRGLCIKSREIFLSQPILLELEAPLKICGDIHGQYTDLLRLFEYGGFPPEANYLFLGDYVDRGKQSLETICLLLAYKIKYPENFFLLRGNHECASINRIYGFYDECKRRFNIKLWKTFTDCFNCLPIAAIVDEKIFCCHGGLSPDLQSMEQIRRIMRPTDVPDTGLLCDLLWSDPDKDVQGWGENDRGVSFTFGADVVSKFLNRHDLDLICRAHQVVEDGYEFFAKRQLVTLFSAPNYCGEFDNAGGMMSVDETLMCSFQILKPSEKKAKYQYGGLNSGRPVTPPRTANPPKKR

Row | Binder | binding result
1 | GST::MKLP1_(620-858) (wild type) (domain or fragment, UniProt Q02241-2 620-856, looked up) ETTMKWEKECERRVAAKQLEMQNKLWVKDEKLKQLKAIVTEPKTEKPERPSRERDREKVTQRSVSPSPVPLLFQPDQNAPPIRLRHRRSRSAGDRWVDHKPASNMQTETVMQPHVPHAITVSVANEKALAKCEKYMLTHQELASDGEIETKLIKGDIYKTRGGGQSVQFTDIETLKQESPNGSRKRRSSTVAPAQPDGAESEWTDVETRCSVAVEMRAGSQLGPGYQHHAQPKRKKP | binds
2 | GST::MKLP1_(620-858) AQA mutant (domain or fragment, UniProt Q02241-2 620-856, looked up) ETTMKWEKECERRVAAKQLEMQNKLWVKDEKLKQLKAIVTEPKTEKPERPSRERDREKVTQRSVSPSPVPLLFQPDQNAPPIRLRHRRSRSAGDRWVDHKPASNMQTETVMQPHVPHAITVSVANEKALAKCEKYMLTHQELASDGEIETKLIKGDIYKTRGGGQSAQATDIETLKQESPNGSRKRRSSTVAPAQPDGAESEWTDVETRCSVAVEMRAGSQLGPGYQHHAQPKRKKP | binds
